Results reported in the DeepSol protein solubility set.

assay: soluble on expression in E. coli; label from the status in PepcDB or PDB records

Row | Sequence | soluble on expression in E. coli
1 | MQYDYLEALVKDLSLYKIKTEINMKNLRIWQTLSLWLVLLVTSLPLSAQTALLEKLGKIADITGTQPLESTEFVEKYVAYFTQPLDHRHPEKGSFSQRVIVSHVGFDRPTVMVTEGYGASYALGANYREELSKLFNTNMIFVEYRYFLESTPTPKDWQYLTAENSAEDLHAVREAFRSIYPGKWIATGISKGGQTAMLYRTFFPEDVDISVPYVAPLCYGVEDGRHEPFLKMVSTPEARKKIEDFQLEVLKRKPTLLPRFEKYCAGKKYKFRAPVEEIYDYSVLEYSFSIWQWGTPVDQIPAVTASDDELFKHLLAISEPSYFEEEGANTSFFVQAARELGYYGYDIRPFKKYLTIKTSKDYLKRLMLPEELGDMKFDKTLSRKIIHFLKNNDPKMIFIYGQNDPWTAAGVTWLKGKKNIHVFVEPNGSHLARIGTLPQKEKEEAIGLIKKWLEE | not soluble
2 | MANLGETLKQLRKQRRWTQEQLAEQLNVSRSQISKWENGSLLPDVQSLEKLCQLFNISADFLLGGETRQRELLREVTDMYGTADVHETVLAALDYLLHNQEMSEAMYALAKLPDKKRKHVETMIMTIVKECSELI | not soluble
3 | MSLDTHSLRFSKEGTFQITVFSDLHFAEYENTAQGAKQDSRTAGVVRKVLQHEASTQLVVLNGDLISGYGTTSDNATRYLDQVLAPIQALGLPWAVTYGNHDNERFARSRELLDYESRTYPNYSLTRNMGPRDLEAGVSNYYLEVFAAETSHVPEMLLWFFDSRGGAQPHDWVHDSVVQWFIDTNANLTNKYNKAVPSIAFFHIPITATYDFQLYPGVDTSREPGINGEKVWWQGRGYDGKTGHDLKFMAALSATEGMLATFSGHDHDNDWCFKWKSPSATSSSAGLNVCYGRHTGYGGYGGLARGARQILLKQSTIKDEVATWIRLEDGLVPENVTLNATYGQDEEGHHHHHH | not soluble
4 | MSRSEFPNSKCLICGSICTAKFHFGGLSCNACASFFRRTVSLNIRYLCKNSNNCITSPGQRTFCKACRYESCVDKAGMKRDFVQQRRSTNATPKYILNSTSGSSNREVVRGFITDSNSHLVTQTDHLRNIDNNEHCKDMKKYSDLLEISHMNLLRFYVKQVEPEKKELKNILQIKSINDLMITCAYDNGSAMESCVHCPGTGKLSQEDVRLLQKSFQFAHTWLDSTWQYSIATDIDESEVSGESENLSQFISHIKSTLGACLANLKLDVYEFAAFKSFCVWSIGAQGATESMKVVAQEHYEAVASALKMYYKTFTSMSDSEIATRIEEISFGRSSDVQMIYDETIKLYNKIGIPKSLFFEGN | not soluble
5 | MGSDKIHHHHHHAADGEGRGELSPKIKAGDLESKLIVPKNNGLKITGTFLDEISHDIPHQNWGEKEWDLDFQHMKRIGIDTVIMIRSGYRKFMTYPSPYLLKKGCYMPSVDLVDMYLRLAEKYNMKFYFGLYDSGRYWDTGDLSWEIEDNKYVIDEVWKMYGEKYKSFGGWYISGEISRATKGAIDAFRAMGKQCKDISNGLPTFISPWIDGKKAIMGTGKLTREDAVSVQQHEKEWNEIFDGIHEVVDACAFQDGHIDYDELDAFFTVNKKLADKYGMQCWTNAESFDRDMPIRFLPIKFDKLRMKLEAAKRAGYDKAITFEFSHFMSPQSAYLQAGHLYDRYREYFEIK | not soluble
6 | MSLGNSRSRVGRSFCSQFLPEEQAEIDQLFDALSSDKNSPNVSSKSFSLKALQNHVGEALPPEMVTRLYDGMRRVDLTGKAKGPSENVSQEQFTASMSHLLKGNSEEKSLMIMKMISATEGPVKAREVQKFTEDLVGSVVHVLSHRQELRGWTGKEAPGPNPRVQVLAAQLLSDMKLQDGKRLLGPQWLDYDCDRAVIEDWVFRVPHVAIFLSVVICKGFLVLCSSLDLTTLVPERQVDQGRGFESILDVLSVMYINAQLPREQRHRWRLLFSSVLHGHSFSQLCGHITHRGPCVAVLEDHDKHVFGGFASCSWEVKPQFQGDNRCFLFSICPSMAVYTHTGYNDHYMYLNHGQQTIPNGLGMGGQHNYFGLWVDVDFGKGHSRAKPTCTTYNSPQLSAQENFQFDKMEVWAVGDPSEEQLAKGNKSILDADPEAQALLEISGHSRHSEGLREVPDDEGHHHHHH | soluble
7 | MSNVSSETVNLNNTSIVHMNMSNVTKLTASNYIMWSRQVHALLHGYGLTQYLDATKAAPAREITVNDVASVNPEYEAWSRQDQLIFSALIGTLSLTVQPTVSRAATSADVWATLAGTYAKPSRGHIKQLQHQIKQWKKDTRTIDEYVQGFINRFDQLALIGKIIDHEDQVDYILGGLPEDYKPIVDQMEGRDTPPNGCLTNSCDEDGCFIQMALNSV | soluble
8 | MGSDKIHHHHHHMTHDDVIQAIVNTIRDVPGIRALFLSGSYGNGLADEYSDIDFVLVSEDGATDAVAEAWRNAVEKTGEIVLWWDRTTVPVLINAITEDWTRTDVIILKPDQMGRQTKDALKPLFDHDNIYDTLKDAAPKPGPDLKRFRYEVEEFIRILGLLQLAVGREEYINGVLGVSLLRSKLVNLLIEETDAPNRGGILHLNRLITEDQKQVLISLPPAVPERDAMISAHLAYAAAYLPRARRRAERLGMEWPERFEAVTWSRLEKTLSIRRPYD | not soluble
9 | MQRARCYLLGETAVVLELEPPITLASQKRIWRLTQRLVDMPNVVEAIPGMNNITVILREPQTLALDAIERLQRWWEESEALEPDSRSVEIPVIYGGAGGPDLAAVARHSGLSEKQVVELHASVEYVVWFLGFQPGFPYLGNLPEPLHMPRRAEPRLQVPAGSVGIGGAQTGIYPLSTPGGWQLIGLTPLKLFDPMRETPVLLRPGDSVRFVPQKEGICMAGDPLEHHHHHH | not soluble
10 | MEEELQHSHCVNCVSRRCMTRPEPGISCDLIGCPLVCGAVFHSCKADEHRLLCPFERVPCLNSDFGCPFTMARNKVAEHLEMCPASV | soluble
11 | SYSKTNEAAIEKTRHIANAAVYGRPEYRYNGALNLHYRPKRTDSTLLLNGGMNLNGEVLIEGGNMIVSGRPVPHAYDHQAKREPVLENEWTDGSFKAARFTLRNHARLTAGRNTAHLDGDITAYDLSGIDLGFTQGKTPECYRSYHSGSTHCTPNAVLKAENYRALPATQVRGDITLNDRSELRLGKAHLYGSIRAGKDTAVRMEA | not soluble
12 | MNDKKLLVAYDISSNRRRRKVARILEQCGIRINKSVFICSLRELTMDKLVEAVTSQTAKRDKVFFLPLCQHCYTAAWMSGHPTLPKSRRKRKSIVV | not soluble
13 | MGSDKIHHHHHHMRREEMWKLINATIEPIDTETSSSHILSEQDVNESTSGVIFIHTVGVMPVTVNDLIEEGRCARTDLSYADVILASRPVEEERTPVVYLNPDMNDASFYLLENAREIVPADLAKDVLLDRIVRYKRVQRVVDAVIVTDDPHLRRLLERELTKNFETLSLYERAEVFLEQHVATRPYLLVFSSALPRADGLELLLRAKQETIVPFHAIMISMYNRERDHVLAIERGVDGIMTLPLKVEEFRAWVSRLEGVHG | not soluble
14 | MGSDKIHHHHHHMNNSLAFNHDTLPQKVMFGYGKSSAFLKQEVERRGSAKVMVIAGEREMSIAHKVASEIEVAIWHDEVVMHVPIEVAERARAVATDNEIDLLVCVGGGSTIGLAKAIAMTTALPIVAIPTTYAGSEATNVWGLTEAARKTTGVDLKVLPETVIYDSELTMSLPVEMSVASGLNGLAHCIDSLWGPNADPINAVLAAEGIRALNQGLPKIVANPHSIEGRDEALYGAYLAAVSFASAGSGLHHKICHTLGGTFNLPHAQTHATVLPYVLAFNAGDAPEAERRAAAAFGTDTALEGLQRLRLSVNAPKRLSDYGFEASGIAEAVDVTLEKVPANNPRPVTRENLSRLLEAALNGEDPAVLSAVLSN | not soluble
15 | MGSDKIHHHHHHVTDSDSQPVNEFPIAPPAPRKGRGAVTNLQGRYEVDQREAIDDGWLSLAEDDDEPKVLRTQVFEERAKTILTRNASPDIPFGVSLNPYRGCEHGCIYCFARPTHSYLGLSPGLDFESRIYAKVNAPELLERELSKKSYVPEPIALGVNTDAWQPAERDLQLTRRVIEVLSERHHPFAAITKSSLIERDLDLLAPMAARGQFMAAITITTLDAGIARTLEPRAATPSRRLRTIRTLSEAGIPVGVSIAPVIPFVTEPDMERVLEACAEAGASNASYIVLRLPWEVAPLFKDWLAAYFPDRAERVMGRVRDMRGGKDYDSSFSTRMKGEGLWADLLKQRFHKAVRRLGLNRRDRGILDMSHFRRIEPPRAGQPARNDSQLDLF | not soluble
16 | MKTLLLLIPLVLTACGTLTGIPAHGGGKRFAVEQELVAASSRAAVKEMDLSALKGRKAALYVSVMGDQGSGNISGGRYSIDALIRGGYHNNPDSATRYSYPAYDTTATTKSDALSGVTTSTSLLNAPAAALTKNNGRKGERSAGLSVNGTGDYRNETLLANPRDVSFLTNLIQTVFYLRGIEVVPPEYADTDVFVTVDVFGTVRSRTELHLYNAETLKAQTKLEYFAVDRDSRKLLIAPKTAAYESQYQEQYALWMGPYSVGKTVKASDRLMVDFSDITPYGDTTAQNRPDFKQNNGKNPDVGNEVIRRRKGG | not soluble
17 | MSKSEETLSSIMEASYRLFARHGITKTTYSMIAEEVGIAKPSIYYYFKSKDALIECIFTELCAAMQFSSFFHTEEFTKENFIEKCIEIGFKIIDEQQNDPYFNRVLQEYLLLSSRNDMYKDRLLTVQTEYLQGFESLLTKANELQLIENKNLVSKAHMLALVLDNVGNFMMLHVDIDYRQIWMEAVNIIFERRD | not soluble
18 | MSLAGKKIVLGVSGGIAAYKTPELVRRLRDRGADVRVAMTEAAKAFITPLSLQAVSGYPVSDSLLDPAAEAAMGHIELGKWADLVILAPATADLIARVAAGMANDLVSTICLATPAPVAVLPAMNQQMYRAAATQHNLEVLASRGLLIWGPDSGSQACGDIGPGRMLDPLTIVDMAVAHFSPVNDLKHLNIMITAGPTREPLDPVRYISNHSSGKMGFAIAAAAARRGANVTLVSGPVSLPTPPFVKRVDVMTALEMEAAVNASVQQQNIFIGCAAVADYRAATVAPEKIKKQATQGDELTIKMVKNPDIVAGVAALKDHRPYVVGFAAETNNVEEYARQKRIRKNLDLICANDVSQPTQGFNSDNNALHLFWQDGDKVLPLERKELLGQLLLDEIVTRYDEKNRR | soluble
19 | SENVGKKYFMSSVRRMPLNRAKALCSELQGTVATPRNAEENRAIQNVAKDVAFLGITDQRTENVFEDLTGNRVRYTNWNEGEPNNVGSGENCVVLLTNGKWNDVPCSDSFLVVCEFSD | soluble
20 | GPGSMSTGAELLSKALQLQHTRCETYRLWDAKFHCALGGALSASDFETAVNNSIIAAFRCVSLSFRELQCLCRDSTDDACRFLCVWIDELQELEQRHYNISVQFAQLVVQHCTALPLHSSTSQTDMCQTAANEEAENSGVENGSKEVQGTADVSENEKSTVANGERNNSSEVICASLHDRQLCELQRIIPLQAQSVLNYVTCRDDFFPSSSDDECEGDQTGGDGCTSNGADSEPGDLLVPFHHKSGVVATYSPGEVKKRCATFNAAVMPLWRSKLRLRQQLQEKMDELQEEITSASSVFP | soluble
21 | MSVSRYPVAIAGAGPAGSALALALQAQGVEALLLDRPLAQPFRIGESATPDVAGLLERLGAGHALDGQPGYHGNLSLWGSESPRLDHFLYRGRGHGWHLDRAGFDHALRQEAMARGVAVLGESGVDAIAPAAGGWRLRVRGLGEVEARVVVDAGGRRSPLAARLGISRCRLDRLQALACRVDGPGQLSGYSLVESAPYGWWYAAALPDGRALATLMTDQDLARELGLEHPANFLAAWRATRLLSERLPPPQRIDAAHAFAAHSGCVARAAGPGWICVGDALMGLDPLTSSGIACALGDALAAAPAIVAMLDGELAPARAYAKRADDCFRRYLAERRRHYRQENRWPEQPFWQRRAFSPAALAVPALEHHHHHH | not soluble
